B1: FUNDC2 (parent)
chain: YIKVDWQRVEKDMKKAKEQLKIRK
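Further: lentivirally expressed fusions sorted by FACS into six bins by GFP to DsRed ratio, PSI derived from sequencing read proportions per bin multiplied by bin number.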

The variants in the data set derive from B1. In words: protein stability index of a GFP-peptide fusion (GPS, HEK-293T) (PSI 1-6); higher = more stable. Conditions: c terminus: a fixed tail appended.
As to YIKVDWQRVEKDMKKAKEQPKIRK [L20P], the protein stability index is 1.95.
Under YIKVDWQRVEKDMKKAKEQKKIRK [L20K] stands 1.59.
Regarding YIKVDWQRVEKDMKKAKEQNKIRK [L20N], the protein stability index is 1.49.
With YIKVDWQRVEKDMKKAKEQFKIRK [L20F], the protein stability index turned out to be 4.29.
As to YIKVDWQRVEKDMKKAKEQHKIRK [L20H], the protein stability index was 1.71.
For YIKVDWQRVEKDMKKAKEQYKIRK [L20Y], the protein stability index came to 1.91.
Under YIKVDWQRVEKDMKKAKEQTKIRK [L20T] stands 2.62.
For YIKVDWQRVEKDMKKAKEQWKIRK [L20W], the protein stability index came out at 2.65.
Consider YIKVDWQRVEKDMKKRKEQLKIRK [A16R], for which the protein stability index worked out at 2.08.
Consider YIKVDWQRVEKDMKKSKEQLKIRK [A16S], for which the protein stability index was determined as 1.75.
On to YIKVDWQRVEKDMKKIKEQLKIRK [A16I], for which the protein stability index came to 2.06.
The value for YIKVDWQRVEKDMKKTKEQLKIRK [A16T] was 1.89.
Turning to YIKVDWQRVEKDMKKPKEQLKIRK [A16P], the protein stability index was 2.13.
For YQKVDWQRVEKDMKKAKEQLKIRK [I2Q], the protein stability index amounted to 1.75.
The value for YGKVDWQRVEKDMKKAKEQLKIRK [I2G] was 3.6; that for YFKVDWQRVEKDMKKAKEQLKIRK [I2F] was 2.74; that for YDKVDWQRVEKDMKKAKEQLKIRK [I2D] was 3.58.
Take YNKVDWQRVEKDMKKAKEQLKIRK [I2N]: the protein stability index was found to be 3.6.
Under YAKVDWQRVEKDMKKAKEQLKIRK [I2A] stands 3.35.
Under YIKVDWQVVEKDMKKAKEQLKIRK [R8V] stands 1.74; under YIKVDWQMVEKDMKKAKEQLKIRK [R8M], 2.35; under YIKVDWQPVEKDMKKAKEQLKIRK [R8P], 2.48.
Regarding YIKVDWQLVEKDMKKAKEQLKIRK [R8L], the protein stability index was determined as 2.21.
Under YIKVDWQSVEKDMKKAKEQLKIRK [R8S] stands 1.96; under YIKVDWQHVEKDMKKAKEQLKIRK [R8H], 2.11.
With YIKVDWQCVEKDMKKAKEQLKIRK [R8C], the protein stability index was determined as 1.04.
The value for YIKVDWQDVEKDMKKAKEQLKIRK [R8D] was 2.05.
As to YIKVDWQRVERDMKKAKEQLKIRK [K11R], the protein stability index was 2.09.
The value for YIKVDWQRVEDDMKKAKEQLKIRK [K11D] was 2.06; that for YIKVDWQRVETDMKKAKEQLKIRK [K11T] was 2.56.
Under YIKVDWQRVEGDMKKAKEQLKIRK [K11G] stands 1.2; under YIKVDWQRVENDMKKAKEQLKIRK [K11N], 2.59; under YIKVDWQRVEPDMKKAKEQLKIRK [K11P], 2.5.
The value for YIKVDWQRVECDMKKAKEQLKIRK [K11C] was 1.53.
On to YIKVDWQRVEMDMKKAKEQLKIRK [K11M], for which the protein stability index is 1.57.
As for YIKVDWQRVEQDMKKAKEQLKIRK [K11Q], the protein stability index is 2.12.
Turning to YIKVDWQRVEKDMKCAKEQLKIRK [K15C], the protein stability index came to 2.35.
Under YIKVDWQRVEKDMKSAKEQLKIRK [K15S] stands 1.65.
Under YIKVDWQRVEKDMKQAKEQLKIRK [K15Q] stands 2.5; under YIKVDWQRVEKDMKDAKEQLKIRK [K15D], 2.05.
Regarding YIKVDWQRVEKDMKPAKEQLKIRK [K15P], the protein stability index was 1.72.
Under YIKVDWQRVEKDMKRAKEQLKIRK [K15R] stands 1.92; under YIKVDWQRVEKDMKIAKEQLKIRK [K15I], 2.01.
For the variant YIKVDWQRVEKDMKNAKEQLKIRK [K15N], the protein stability index came out at 1.88.
The value for YIKVDWQRVVKDMKKAKEQLKIRK [E10V] was 1.52; that for YIKVDWQRVQKDMKKAKEQLKIRK [E10Q] was 1.36.
For the variant YIKVDWQRVMKDMKKAKEQLKIRK [E10M], the protein stability index was 1.73.
In the case of YIKVDWQRVFKDMKKAKEQLKIRK [E10F], the protein stability index worked out at 1.78.
The value for YIKVDWQRVRKDMKKAKEQLKIRK [E10R] was 1.27.
The value for YIKVDPQRVEKDMKKAKEQLKIRK [W6P] was 3.15.
Regarding YIKVDHQRVEKDMKKAKEQLKIRK [W6H], the protein stability index was 2.83.
The value for YIKVDKQRVEKDMKKAKEQLKIRK [W6K] was 3.09.
The value for YIKVDGQRVEKDMKKAKEQLKIRK [W6G] was 2.81; that for YIKVDMQRVEKDMKKAKEQLKIRK [W6M] was 2.46.
As for YIKVDVQRVEKDMKKAKEQLKIRK [W6V], the protein stability index is 3.49.
The value for YIKVDYQRVEKDMKKAKEQLKIRK [W6Y] was 2.24.
Regarding YIKVDIQRVEKDMKKAKEQLKIRK [W6I], the protein stability index was found to be 2.47.
With YIKVDTQRVEKDMKKAKEQLKIRK [W6T], the protein stability index amounted to 2.97.
Under YIKVDNQRVEKDMKKAKEQLKIRK [W6N] stands 3.23.
The value for YIKVDWQRVEKDMKKAKEQLKIRQ [K24Q] was 1.31.
For the variant YIKVDWQRVEKDMKKAKEQLKIRT [K24T], the protein stability index worked out at 1.76.
The value for YIKVDWQRVEKDMKKAKEQLKIRP [K24P] was 1.6; that for YIKVDWQRVEKDMKKAKEQLKIRW [K24W] was 1.69; that for YIKVDWQRVEKDMKKAKEQLKIRA [K24A] was 2.81.
The value for YIKVDWQRVEKDMKKAKEQLKIRG [K24G] was 1.85; that for YIKVDWQRVEKDMKKAKEQLKIRE [K24E] was 2.03.
Turning to YIKVDWQRVEKDMKKAKEQLKIRY [K24Y], the protein stability index is 1.38.
For YIKVDWQRVEKDMKKAKEQLKIRR [K24R], the protein stability index stood at 1.12.
Under YIKVDWQRVEKDMKKAKEQLKIDK [R23D] stands 2.06; under YIKVDWQRVEKDMKKAKEQLKILK [R23L], 1.6; under YIKVDWQRVEKDMKKAKEQLKIVK [R23V], 2.26.
In the case of YIKVDWQRVEKDMKKAKEQLKIGK [R23G], the protein stability index was found to be 1.69.
Under YIKVDWQRVEKDMKKAKEQLKIYK [R23Y] stands 1.67; under YIKVDWQRVEKDMKKAKEQLKIAK [R23A], 2.08.
Regarding YIKVDWQRVEKDMKKAKEQLKIKK [R23K], the protein stability index turned out to be 2.6.
Consider YIKVDWQRVEKDMKKAKEQLKINK [R23N], for which the protein stability index turned out to be 3.5.
Turning to YIKVDWQRVEKDMKKAKEQLKIWK [R23W], the protein stability index was 1.59.
Take YIKVDWQRVEKDMKKALEQLKIRK [K17L]: the protein stability index was determined as 2.21.
In the case of YIKVDWQRVEKDMKKAAEQLKIRK [K17A], the protein stability index turned out to be 1.64.
On to YIKVDWQRVEKDMKKACEQLKIRK [K17C], for which the protein stability index came to 2.19.
With YIKVDWQRVEKDMKKASEQLKIRK [K17S], the protein stability index stood at 2.62.
Take YIKVDWQRVEKDMKKATEQLKIRK [K17T]: the protein stability index is 1.62.
Under YIKVDWQRVEKDMKKAVEQLKIRK [K17V] stands 1.64.
For the variant YIKVDWQRVEKDMKKAEEQLKIRK [K17E], the protein stability index came to 2.15.
Under YIKVDWQRVEKDMKKANEQLKIRK [K17N] stands 1.95.
Take YIKVDWQRVEKDMKKAMEQLKIRK [K17M]: the protein stability index was determined as 2.83.
For YIKVDWQRVEKEMKKAKEQLKIRK [D12E], the protein stability index was found to be 1.82.
In the case of YIKVDWQRVEKMMKKAKEQLKIRK [D12M], the protein stability index was determined as 2.97.
Under YIKVDWQRVEKVMKKAKEQLKIRK [D12V] stands 3.62.
Under YIKVDWQRVEKRMKKAKEQLKIRK [D12R] stands 1.91.
The value for YIKVDWQRVEKLMKKAKEQLKIRK [D12L] was 2.8.
As for YIKVDWQRVEKHMKKAKEQLKIRK [D12H], the protein stability index amounted to 1.03.
As for YIKVDWQRVEKTMKKAKEQLKIRK [D12T], the protein stability index was found to be 1.74.
Consider YIKVDWQRVEKDSKKAKEQLKIRK [M13S], for which the protein stability index was 2.21.
